Assay results published in PMC5986104.

Target: NOTCH2-Myc (human) (UniProt Q04721)
UniProt Q04721, sequence (Q04721 26-2471): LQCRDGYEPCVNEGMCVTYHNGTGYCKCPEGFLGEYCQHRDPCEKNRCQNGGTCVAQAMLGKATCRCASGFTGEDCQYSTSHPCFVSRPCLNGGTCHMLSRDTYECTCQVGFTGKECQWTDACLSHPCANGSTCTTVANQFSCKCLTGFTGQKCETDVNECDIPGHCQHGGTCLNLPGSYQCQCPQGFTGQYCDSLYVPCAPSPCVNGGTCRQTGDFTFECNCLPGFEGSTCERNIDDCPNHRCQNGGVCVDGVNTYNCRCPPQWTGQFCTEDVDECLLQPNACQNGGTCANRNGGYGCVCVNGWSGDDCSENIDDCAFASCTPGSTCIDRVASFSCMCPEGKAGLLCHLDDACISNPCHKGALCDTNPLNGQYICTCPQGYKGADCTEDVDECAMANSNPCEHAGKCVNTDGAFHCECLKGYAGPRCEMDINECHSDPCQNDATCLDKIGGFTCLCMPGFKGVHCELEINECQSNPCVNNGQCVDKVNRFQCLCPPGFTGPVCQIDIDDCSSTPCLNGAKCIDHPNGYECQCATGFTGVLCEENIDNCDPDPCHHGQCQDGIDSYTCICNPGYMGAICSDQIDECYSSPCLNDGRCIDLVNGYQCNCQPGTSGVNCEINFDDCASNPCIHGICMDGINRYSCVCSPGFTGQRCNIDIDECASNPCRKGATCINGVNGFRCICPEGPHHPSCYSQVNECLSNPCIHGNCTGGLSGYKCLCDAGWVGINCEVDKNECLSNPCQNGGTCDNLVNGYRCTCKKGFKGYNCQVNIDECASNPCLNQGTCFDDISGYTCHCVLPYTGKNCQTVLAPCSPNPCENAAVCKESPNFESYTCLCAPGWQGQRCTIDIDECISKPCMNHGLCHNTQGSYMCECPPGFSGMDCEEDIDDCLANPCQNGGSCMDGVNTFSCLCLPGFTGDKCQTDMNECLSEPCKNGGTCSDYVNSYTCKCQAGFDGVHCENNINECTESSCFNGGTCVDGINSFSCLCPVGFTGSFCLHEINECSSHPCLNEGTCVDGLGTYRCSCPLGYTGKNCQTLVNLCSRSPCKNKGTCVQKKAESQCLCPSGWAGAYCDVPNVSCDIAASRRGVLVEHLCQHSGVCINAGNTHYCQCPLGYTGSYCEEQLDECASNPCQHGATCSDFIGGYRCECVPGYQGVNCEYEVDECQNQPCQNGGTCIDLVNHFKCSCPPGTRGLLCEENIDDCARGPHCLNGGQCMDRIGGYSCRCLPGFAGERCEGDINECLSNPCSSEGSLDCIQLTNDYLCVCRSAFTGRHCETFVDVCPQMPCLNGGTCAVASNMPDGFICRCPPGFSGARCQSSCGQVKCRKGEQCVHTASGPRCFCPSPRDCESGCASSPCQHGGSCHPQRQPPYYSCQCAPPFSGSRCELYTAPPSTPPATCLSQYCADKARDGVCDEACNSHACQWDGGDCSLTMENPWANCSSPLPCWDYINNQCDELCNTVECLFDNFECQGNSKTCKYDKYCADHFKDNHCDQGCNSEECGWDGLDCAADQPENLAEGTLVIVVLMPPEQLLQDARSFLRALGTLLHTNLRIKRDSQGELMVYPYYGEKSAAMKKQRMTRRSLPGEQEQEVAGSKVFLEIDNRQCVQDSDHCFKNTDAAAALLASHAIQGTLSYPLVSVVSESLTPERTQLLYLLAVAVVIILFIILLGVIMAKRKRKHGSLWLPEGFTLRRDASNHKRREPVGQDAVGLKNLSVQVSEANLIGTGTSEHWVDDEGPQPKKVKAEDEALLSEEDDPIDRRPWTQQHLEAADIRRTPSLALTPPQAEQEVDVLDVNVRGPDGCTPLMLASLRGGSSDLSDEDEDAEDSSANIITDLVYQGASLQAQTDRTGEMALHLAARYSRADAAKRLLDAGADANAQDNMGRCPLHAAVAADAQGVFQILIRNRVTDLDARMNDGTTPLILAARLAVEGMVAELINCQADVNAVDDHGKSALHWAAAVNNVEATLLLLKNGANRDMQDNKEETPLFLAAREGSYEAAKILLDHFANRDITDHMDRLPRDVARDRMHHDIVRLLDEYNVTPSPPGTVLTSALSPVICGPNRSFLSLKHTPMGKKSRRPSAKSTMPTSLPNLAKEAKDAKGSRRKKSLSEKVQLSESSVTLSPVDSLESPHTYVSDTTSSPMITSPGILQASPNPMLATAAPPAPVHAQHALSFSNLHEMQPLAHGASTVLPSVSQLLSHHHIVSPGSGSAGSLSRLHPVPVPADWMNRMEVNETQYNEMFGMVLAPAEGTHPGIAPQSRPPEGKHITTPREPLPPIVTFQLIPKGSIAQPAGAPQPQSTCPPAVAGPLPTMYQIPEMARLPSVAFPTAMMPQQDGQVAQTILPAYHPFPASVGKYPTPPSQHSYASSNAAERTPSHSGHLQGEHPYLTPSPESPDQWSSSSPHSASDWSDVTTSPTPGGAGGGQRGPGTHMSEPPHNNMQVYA

Row | Substance | NOTCH2-GAL4 reporter activation under baseline conditions, increase (Figure 6J) | NOTCH2-GAL4 reporter activation under baseline conditions, increase (Figure 6H) | NOTCH2-GAL4 reporter activation with JAG2 co-culture, increase (Figure 6I)
1 | NOTCH2NL-HA^L,T197I (from UniProt P0DPK3 26-275) (natural protein) | 63% | – | –
2 | NOTCH2NL^Sh,T197I (natural protein) | – | 31% | 53%
3 | NOTCH2NL^L (from UniProt P0DPK3 26-275) (natural protein) | 21% | – | –
